From the supplement of paper PMC10567573

B1: TFE3 (parent)
chain: FPSDHLGDLGDPFHLGLEDILMEE

Variants of: B1
Experiment: protein stability index of a GFP-peptide fusion (GPS, HEK-293T) (PSI 1-6); higher = more stable
Settings: c terminus: a fixed tail appended
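Note: lentivirally expressed fusions sorted by FACS into six bins by GFP to DsRed ratio, PSI derived from sequencing read proportions per bin multiplied by bin number.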

Variant | protein stability index
FPSDHLGDLGDPFHLGLEDILVEE [M22V] | 3.08
FPSDHLGDLGDPFHLGLEDILTEE [M22T] | 3.72
FPSDHLGDLGDPFHLGLEDILEEE [M22E] | 4.79
FPSDHLGDLGDPFHLGLEDILSEE [M22S] | 3.87
FPSDHLGDLGDPFHLGLEDILQEE [M22Q] | 3.75
FPSDHLGDLGDPFHLGLEDILGEE [M22G] | 3.64
FPSDHLGDLGDPFHLGLEDILREE [M22R] | 3.33
FPSDHLGDLGDPFHLGLEDILHEE [M22H] | 3.7
FPSDHLGDLGDPFHLGLEDILIEE [M22I] | 3.35
FPSDHLGDLGDPFHLGLEDILDEE [M22D] | 4.26
FPSDHLGDLGDPFHLGLEDILCEE [M22C] | 3.53
FPSDHLGDLGDPFHLGLEDILKEE [M22K] | 3.98
FPSDHLGDLGDPFHLGLEDILNEE [M22N] | 4.04
FPSDHLGDLGDPFHLGLEDILFEE [M22F] | 3.14
FPSDHLGDLGDPFHLGLEDILPEE [M22P] | 3.71
FPSDHLGDLGDPFHLGLEDILLEE [M22L] | 3.24
FPSDHLGDLGDPFHLGLEDILYEE [M22Y] | 3.13
FPSDHLGDLGDPFHLGLEDILAEE [M22A] | 3.31
FPSDHLGDLGDPFHLGLEDILWEE [M22W] | 3.16
FPSDHLGDLGDPFHLGLEDILMET [E24T] | 2.95
FPSDHLGDLGDPFHLGLEDILMEY [E24Y] | 2.35
FPSDHLGDLGDPFHLGLEDILMEV [E24V] | 1.59
FPSDHLGDLGDPFHLGLEDILMEG [E24G] | 2.91
FPSDHLGDLGDPFHLGLEDILMED [E24D] | 3.54

Variant | protein stability index
FPSDHLGDLGDPFHLGLEDILMEP [E24P] | 2.77
FPSDHLGDLGDPFHLGLEDILMEA [E24A] | 2.64
FPSDHLGDLGDPFHLGLEDILMES [E24S] | 2.91
FPSDHLGDLGDPFHLGLEDILMER [E24R] | 2.87
FPSDHLGDLGDPFHLGLEDILMEC [E24C] | 2.96
FPSDHLGDLGDPFHLGLEDILMEF [E24F] | 1.92
FPSDHLGDLGDPFHLGLEDILMEW [E24W] | 1.8
FPSDHLGDLGDPFHLGLEDILMEH [E24H] | 2.75
FPSDHLGDLGDPFHLGLEDILMEQ [E24Q] | 2.96
FPSDHLGDLGDPFHLGLEDILMEM [E24M] | 2.62
FPSDHLGDLGDPFHLGLEDILMEL [E24L] | 1.97
FPSDHLGDLGDPFHLGLEDILMEN [E24N] | 3.49
FPSDHLGDLGDPFHLGLEDILMEI [E24I] | 1.97
FPSDHLGDLGDPFHLGLEDILMEK [E24K] | 2.59
FPSDHLGDLGDPFHLGLEDELMEE [I20E] | 4.2
FPSDHLGDLGDPFHLGLEDLLMEE [I20L] | 3.91
FPSDHLGDLGDPFHLGLEDGLMEE [I20G] | 4.16
FPSDHLGDLGDPFHLGLEDVLMEE [I20V] | 3.48
FPSDHLGDLGDPFHLGLEDQLMEE [I20Q] | 4.37
FPSDHLGDLGDPFHLGLEDCLMEE [I20C] | 3.84
FPSDHLGDLGDPFHLGLEDYLMEE [I20Y] | 3.88
FPSDHLGDLGDPFHLGLEDRLMEE [I20R] | 3.5
FPSDHLGDLGDPFHLGLEDSLMEE [I20S] | 3.7
FPSDHLGDLGDPFHLGLEDTLMEE [I20T] | 3.97

Variant | protein stability index
FPSDHLGDLGDPFHLGLEDNLMEE [I20N] | 4.29
FPSDHLGDLGDPFHLGLEDKLMEE [I20K] | 4.05
FPSDHLGDLGDPFHLGLEDHLMEE [I20H] | 3.92
FPSDHLGDLGDPFHLGLEDDLMEE [I20D] | 4.26
FPSDHLGDLGDPFHLGLEDMLMEE [I20M] | 3.63
FPSDHLGDLGDPFHLGLEDFLMEE [I20F] | 3.82
FPSDHLGDLGDPFHLGLEDPLMEE [I20P] | 3.77
FPSDHLGDLGDPFHLGLEDWLMEE [I20W] | 3.5
FPSDHLGDLGDPFHLGLEDICMEE [L21C] | 3.42
FPSDHLGDLGDPFHLGLEDIFMEE [L21F] | 3.28
FPSDHLGDLGDPFHLGLEDIMMEE [L21M] | 3.38
FPSDHLGDLGDPFHLGLEDIVMEE [L21V] | 3.4
FPSDHLGDLGDPFHLGLEDITMEE [L21T] | 3.93
FPSDHLGDLGDPFHLGLEDIEMEE [L21E] | 4.28
FPSDHLGDLGDPFHLGLEDIIMEE [L21I] | 3.32
FPSDHLGDLGDPFHLGLEDINMEE [L21N] | 3.85
FPSDHLGDLGDPFHLGLEDIHMEE [L21H] | 4.08
FPSDHLGDLGDPFHLGLEDIWMEE [L21W] | 3.14
FPSDHLGDLGDPFHLGLEDIGMEE [L21G] | 3.88
FPSDHLGDLGDPFHLGLEDIAMEE [L21A] | 4.03
FPSDHLGDLGDPFHLGLEDIRMEE [L21R] | 3.78
FPSDHLGDLGDPFHLGLEDIPMEE [L21P] | 4.18
FPSDHLGDLGDPFHLGLEDIKMEE [L21K] | 4.06
FPSDHLGDLGDPFHLGLEDIQMEE [L21Q] | 3.94

Variant | protein stability index
FPSDHLGDLGDPFHLGLEDIDMEE [L21D] | 4.26
FPSDHLGDLGDPFHLGLEDISMEE [L21S] | 3.69
FPSDHLGDLGDPFHLGLEDIYMEE [L21Y] | 3.31
FPSDHLGDLGDPFHLGLEDILMLE [E23L] | 2.44
FPSDHLGDLGDPFHLGLEDILMME [E23M] | 2.33
FPSDHLGDLGDPFHLGLEDILMRE [E23R] | 2.95
FPSDHLGDLGDPFHLGLEDILMFE [E23F] | 2.42
FPSDHLGDLGDPFHLGLEDILMCE [E23C] | 2.03
FPSDHLGDLGDPFHLGLEDILMAE [E23A] | 2.45
FPSDHLGDLGDPFHLGLEDILMNE [E23N] | 2.65
FPSDHLGDLGDPFHLGLEDILMVE [E23V] | 3.85
FPSDHLGDLGDPFHLGLEDILMDE [E23D] | 2.86
FPSDHLGDLGDPFHLGLEDILMQE [E23Q] | 3.26
FPSDHLGDLGDPFHLGLEDILMSE [E23S] | 2.81
FPSDHLGDLGDPFHLGLEDILMHE [E23H] | 2.86
FPSDHLGDLGDPFHLGLEDILMPE [E23P] | 2.76
FPSDHLGDLGDPFHLGLEDILMIE [E23I] | 2.62
FPSDHLGDLGDPFHLGLEDILMYE [E23Y] | 2.3
FPSDHLGDLGDPFHLGLEDILMWE [E23W] | 2.56
FPSDHLGDLGDPFHLGLEDILMTE [E23T] | 3.24
FPSDHLGDLGDPFHLGLEDILMGE [E23G] | 2.47
FPSDHLGDLGDPFHLGLEDILMKE [E23K] | 3.34
